Measurements: IntAct's records for PubMed 22252131

B1: Cadherin-1 (Homo sapiens), P12830 (parent)
chain: MGPWSRSLSALLLLLQVSSWLCQEPEPCHPGFDAESYTFTVPRRHLERGRVLGRVNFEDCTGRQRTAYFSLDTRFKVGTDGVITVKRPLRFHNPQIHFLVYAWDSTYRKFSTKVTLNTVGHHHRPPPHQASVSGIQAELLTFPNSSPGLRRQKRDWVIPPISCPENEKGPFPKNLVQIKSNKDKEGKVFYSITGQGADTPPVGVFIIERETGWLKVTEPLDRERIATYTLFSHAVSSNGNAVEDPMEILITVTDQNDNKPEFTQEVFKGSVMEGALPGTSVMEVTATDADDDVNTYNAAIAYTILSQDPELPDKNMFTINRNTGVISVVTTGLDRESFPTYTLVVQAADLQGEGLSTTATAVITVTDTNDNPPIFNPTTYKGQVPENEANVVITTLKVTDADAPNTPAWEAVYTILNDDGGQFVVTTNPVNNDGILKTAKGLDFEAKQQYILHVAVTNVVPFEVSLTTSTATVTVDVLDVNEAPIFVPPEKRVEVSEDFGVGQEITSYTAQEPDTFMEQKITYRIWRDTANWLEINPDTGAISTRAELDREDFEHVKNSTYTALIIATDNGSPVATGTGTLLLILSDVNDNAPIPEPRTIFFCERNPKPQVINIIDADLPPNTSPFTAELTHGASANWTIQYNDPTQESIILKPKMALEVGDYKINLKLMDNQNKDQVTTLEVSVCDCEGAAGVCRKAQPVEAGLQIPAILGILGGILALLILILLLLLFLRRRAVVKEPLLPPEDDTRDNVYYYDEEGGGEEDQDFDLSQLHRGLDARPEVTRNDVAPTLMSVPRYLPRPANPDEIGNFIDENLKAADTDPTAPPYDSLLVFDYEGSGSEAASLSSLNSSESDKDQDYDYLNEWGNRFKKLADMYGGGEDD
B2: E3 ubiquitin-protein ligase Hakai (Mus musculus), Q9JIY2 (parent)
chain: MDHTDNELQGTNSSGSLGGLDVRRRIPIKLISKQASKVKPAPRTQRTVSRMPAKAPQGDEEGFDYNEEQRYDCKGGELFGNQRRFPGHLFWDFKINILGEKDDTPVHFCDKCGLPIKVYGRMIPCKHVFCYDCAILHEKKGDKMCPGCSDPVQRIEQCTRGSLFMCSIVQGCKRTYLSQRDLQAHINHRHMRAGKPVTRASLENVHPPIAPPPTDIPDRFIMPPDKHHMSHIPPKQHIMMPPPPLQHVPHEHYNQPHEDIRAPPAELSMAPPPPRSVSQETFRISTRKHSNLITVPIQDDSSSGAREPPPPAPAPAHHHPEYQGQPVVSHPHHIMPPQQHYAPPPPPPPPISHPMPHPPQAAGTPHLVYSQAPPPPMTSAPPPITPPPGHIIAQMPPYMNHPPPGPPPPQHGGPPVTAPPPHHYNPNSLPQFTEDQGTLSPPFTQPGGMSPGIWPAPRGPPPPPRMQGPPSQTPLPGPHHPDQTRYRPYYQ

Variants of: B1
Conditions: with hakai_mouse Cbll1, Q9JIY2

effect of a mutation on the interaction	Variant
disrupting interaction	Y753F

Variants of: B1
Conditions: with hakai_mouse Cbll1, Q9JIY2
Remark: another data set of the same source

effect of a mutation on the interaction	Variant
disrupting interaction	D750A

Variants of: B1
Conditions: with hakai_mouse Cbll1, Q9JIY2
Remark: another data set of the same source

effect of a mutation on the interaction	Variant
disrupting interaction	Y754F

Variants of: B1
Conditions: with hakai_mouse Cbll1, Q9JIY2
Remark: another data set of the same source

effect of a mutation on the interaction	Variant
disrupting interaction	Y755F

Variants of: B1
Conditions: with hakai_mouse Cbll1, Q9JIY2
Remark: another data set of the same source

effect of a mutation on the interaction	Variant
disrupting interaction	V752A

Variants of: B1
Conditions: with hakai_mouse Cbll1, Q9JIY2
Remark: another data set of the same source

effect of a mutation on the interaction	Variant
disrupting interaction	E757A

Variants of: B1
Conditions: with hakai_mouse Cbll1, Q9JIY2
Remark: another data set of the same source

effect of a mutation on the interaction	Variant
disrupting interaction	D756A

Variants of: B2
Conditions: with cadh1_human CDH1, P12830

effect of a mutation on the interaction	Variant
disrupting interaction	MDHTDNELQGTNSSGSLGGLDVRRRIPIKLISKQASKVKPAPRTQRTVSRMPAKAPQGDEEGFDYNEEQRYDCKGGELFGNQRRFPGHLFWDFKINILGEKDDTPVHFCDKCGLPIKVYGRMIPCKHVFCYDCAILHEKKGDKMCPGCSDPVQRIEQCTRGSLFMCSIVQGCKRTYLSQRDLQAHINHAHMRAGKPVTRASLENVHPPIAPPPTDIPDRFIMPPDKHHMSHIPPKQHIMMPPPPLQHVPHEHYNQPHEDIRAPPAELSMAPPPPRSVSQETFRISTRKHSNLITVPIQDDSSSGAREPPPPAPAPAHHHPEYQGQPVVSHPHHIMPPQQHYAPPPPPPPPISHPMPHPPQAAGTPHLVYSQAPPPPMTSAPPPITPPPGHIIAQMPPYMNHPPPGPPPPQHGGPPVTAPPPHHYNPNSLPQFTEDQGTLSPPFTQPGGMSPGIWPAPRGPPPPPRMQGPPSQTPLPGPHHPDQTRYRPYYQ [R189A]

Variants of: B2
Conditions: with src8_human CTTN

effect of a mutation on the interaction	Variant
disrupting interaction	MDHTDNELQGTNSSGSLGGLDVRRRIPIKLISKQASKVKPAPRTQRTVSRMPAKAPQGDEEGFDYNEEQRYDCKGGELFGNQRRFPGHLFWDFKINILGEKDDTPVHFCDKCGLPIKVYGRMIPCKHVFCYDCAILHEKKGDKMCPGCSDPVQRIEQCTRGSLFMCSIVQGCKRTYLSQRDLQAHINHAHMRAGKPVTRASLENVHPPIAPPPTDIPDRFIMPPDKHHMSHIPPKQHIMMPPPPLQHVPHEHYNQPHEDIRAPPAELSMAPPPPRSVSQETFRISTRKHSNLITVPIQDDSSSGAREPPPPAPAPAHHHPEYQGQPVVSHPHHIMPPQQHYAPPPPPPPPISHPMPHPPQAAGTPHLVYSQAPPPPMTSAPPPITPPPGHIIAQMPPYMNHPPPGPPPPQHGGPPVTAPPPHHYNPNSLPQFTEDQGTLSPPFTQPGGMSPGIWPAPRGPPPPPRMQGPPSQTPLPGPHHPDQTRYRPYYQ [R189A]
